From publication PMC9352680, “A comprehensive thermodynamic model for RNA binding by the Saccharomyces cerevisiae Pumilio protein PUF4”

T1: PUF4 RNA-binding domain (Saccharomyces cerevisiae, UniProt P25339 537-888)
T1 sequence: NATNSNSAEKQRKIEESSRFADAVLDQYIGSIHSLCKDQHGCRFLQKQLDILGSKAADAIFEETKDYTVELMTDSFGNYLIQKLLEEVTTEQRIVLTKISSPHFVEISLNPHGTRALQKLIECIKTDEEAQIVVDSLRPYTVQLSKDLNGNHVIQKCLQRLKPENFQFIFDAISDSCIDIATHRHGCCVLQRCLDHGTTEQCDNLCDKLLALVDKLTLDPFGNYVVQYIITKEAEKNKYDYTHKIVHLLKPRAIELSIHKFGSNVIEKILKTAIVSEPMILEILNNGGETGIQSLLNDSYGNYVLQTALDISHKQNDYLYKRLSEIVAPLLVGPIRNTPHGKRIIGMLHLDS

B1: Ie_S4_P4E.1_K4.1_C4.1_H4.1_A4.1_[+5CTCTC]_F4.1_T4.1 (ssRNA)
RNA: UUUGACAACUGAUCGUUCUUUCUUGUAUCUCUCAUUAUUCUUUCUCGAUCAGUUGUCUUU
B2: Ie_S4_P4E.1_K4.1_C4.1_H4.1_A4.1_F4.1_[+8CCTCT]_T4.1 (ssRNA)
RNA: UUUGACAACUGAUCGUUCUUUCUUGUAUAUUCCUCUAUUCUUUCUCGAUCAGUUGUCUUU
B3: Ie_S4_P4E.1_K4.1_C4.1_H4.1_A4.1_[+5CCTCT]_F4.1_T4.1 (ssRNA)
RNA: UUUGACAACUGAUCGUUCUUUCUUGUAUCCUCUAUUAUUCUUUCUCGAUCAGUUGUCUUU
B4: Ie_S4_P5E.1_K5.1_C5.1_H5.1_A5.1_[+5TCTC]_F5.1_T5.1 (ssRNA)
RNA: UUUGACAACUGAUCGUUCUUUCUUGUAUUCUCUAUUAUUCUUUCUCGAUCAGUUGUCUUU
B5: Ie_S4_P4E.1_K4.1_C4.1_H4.1_A4.1_F4.1_[+9CCCTT]_T4.1 (ssRNA)
RNA: UUUGACAACUGAUCGUUCUUUCUUGUAUAUUACCCUUUUCUUUCUCGAUCAGUUGUCUUU
B6: Ie_S4_P4E.1_K4.1_C4.1_H4.1_A4.1_F4.1_[+9TCTCT]_T4.1 (ssRNA)
RNA: UUUGACAACUGAUCGUUCUUUCUUGUAUAUUAUCUCUUUCUUUCUCGAUCAGUUGUCUUU
B7: Ie_S4_P5E.1_K5.1_C5.1_H5.1_A5.1_[+5TTCC]_F5.1_T5.1 (ssRNA)
RNA: UUUGACAACUGAUCGUUCUUUCUUGUAUUUCCUAUUAUUCUUUCUCGAUCAGUUGUCUUU
B8: Ie_S4_P4E.1_K4.1_C4.1_H4.1_A4.1_[+5CC]_F4.1_T4.1 (ssRNA)
RNA: UUUGACAACUGAUCGUUCUUUCUUGUAUCCAUUAUUCUUUCUCGAUCAGUUGUCUUU
B9: Ie_S4_P4E.1_K4.1_C4.1_H4.1_A4.1_F4.1_[+8CT]_T4.1 (ssRNA)
RNA: UUUGACAACUGAUCGUUCUUUCUUGUAUAUUCUAUUCUUUCUCGAUCAGUUGUCUUU
B10: Ie_S4_P4E.1_K4.1_C4.1_H4.1_A4.1_F4.1_[+9CC]_T4.1 (ssRNA)
RNA: UUUGACAACUGAUCGUUCUUUCUUGUAUAUUACCUUCUUUCUCGAUCAGUUGUCUUU
B11: Ie_S4_P4E.1_K4.1_C4.1_H4.1_A4.1_F4.1_[+9TC]_T4.1 (ssRNA)
RNA: UUUGACAACUGAUCGUUCUUUCUUGUAUAUUAUCUUCUUUCUCGAUCAGUUGUCUUU
B12: Ie_S4_P4E.1_K4.1_C4.1_H4.1_A4.1_[+6TC]_F4.1_T4.1 (ssRNA)
RNA: UUUGACAACUGAUCGUUCUUUCUUGUAUAUCUUAUUCUUUCUCGAUCAGUUGUCUUU
B13: Ib_S2_P3E.1_K3.1_C3.1_H3.1_[G2A]_A3.1_[A6G]_F3.1_T3.1 (ssRNA)
RNA: UUUGAUUAAUAUGAUAUCGUUCUUUCUUAUAUGUAUUCUUUCUCGAUAUCAUAUUAAUCUUU
B14: Ic_S2_P3E.1_K3.1_C3.1_H3.1_A3.1_[A6G]_F3.1_T3.1 (ssRNA)
RNA: UUUGAUUAAUAUGAUAUCGUUCUUUCUUGUAUGUAUUCUUUCUCGAUAUCAUAUUAAUCUUU
B15: Ib_S2_P3E.1_K3.1_C3.1_H3.1_[A4G]_A3.1_[T5C]_F3.1_T3.1 (ssRNA)
RNA: UUUGAUUAAUAUGAUAUCGUUCUUUCUUGUGCAUAUUCUUUCUCGAUAUCAUAUUAAUCUUU
B16: Ib_S2_P3E.1_K3.1_C3.1_H3.1_[A4C]_A3.1_[T5A]_F3.1_T3.1 (ssRNA)
RNA: UUUGAUUAAUAUGAUAUCGUUCUUUCUUGUCAAUAUUCUUUCUCGAUAUCAUAUUAAUCUUU
B17: Ib_S2_P3E.1_K3.1_C3.1_H3.1_[A4C]_A3.1_[T5C]_F3.1_T3.1 (ssRNA)
RNA: UUUGAUUAAUAUGAUAUCGUUCUUUCUUGUCCAUAUUCUUUCUCGAUAUCAUAUUAAUCUUU
B18: Ie_S4_P4E.1_K4.1_C4.1_H4.1_A4.1_[+5TCTC]_F4.1_T4.1 (ssRNA)
RNA: UUUGACAACUGAUCGUUCUUUCUUGUAUUCUCAUUAUUCUUUCUCGAUCAGUUGUCUUU
B19: Ie_S4_P4E.1_K4.1_C4.1_H4.1_A4.1_F4.1_[+8TCTC]_T4.1 (ssRNA)
RNA: UUUGACAACUGAUCGUUCUUUCUUGUAUAUUUCUCAUUCUUUCUCGAUCAGUUGUCUUU
B20: Ie_S4_P4E.1_K4.1_C4.1_H4.1_A4.1_F4.1_[+9TCTC]_T4.1 (ssRNA)
RNA: UUUGACAACUGAUCGUUCUUUCUUGUAUAUUAUCUCUUCUUUCUCGAUCAGUUGUCUUU
B21: Ie_S4_P5E.1_K5.1_C5.1_H5.1_A5.1_[+5CCC]_F5.1_T5.1 (ssRNA)
RNA: UUUGACAACUGAUCGUUCUUUCUUGUAUCCCUAUUAUUCUUUCUCGAUCAGUUGUCUUU
B22: Ie_S4_P4E.1_K4.1_C4.1_H4.1_A4.1_[+7TCTC]_F4.1_T4.1 (ssRNA)
RNA: UUUGACAACUGAUCGUUCUUUCUUGUAUAUUCUCUAUUCUUUCUCGAUCAGUUGUCUUU
B23: Ie_S4_P5E.1_K5.1_C5.1_H5.1_[+1CCT]_A5.1_F5.1_T5.1 (ssRNA)
RNA: UUUGACAACUGAUCGUUCUUUCUUCCUGUAUUAUUAUUCUUUCUCGAUCAGUUGUCUUU
B24: Ie_S4_P4E.1_K4.1_C4.1_H4.1_A4.1_[+5CCTC]_F4.1_T4.1 (ssRNA)
RNA: UUUGACAACUGAUCGUUCUUUCUUGUAUCCUCAUUAUUCUUUCUCGAUCAGUUGUCUUU
B25: Ie_S4_P4E.1_K4.1_C4.1_H4.1_A4.1_[+6CTCT]_F4.1_T4.1 (ssRNA)
RNA: UUUGACAACUGAUCGUUCUUUCUUGUAUACUCUUUAUUCUUUCUCGAUCAGUUGUCUUU
B26: Ie_S4_P4E.1_K4.1_C4.1_H4.1_A4.1_[+6CCCT]_F4.1_T4.1 (ssRNA)
RNA: UUUGACAACUGAUCGUUCUUUCUUGUAUACCCUUUAUUCUUUCUCGAUCAGUUGUCUUU
B27: Ie_S4_P4E.1_K4.1_C4.1_H4.1_A4.1_[+6TCTC]_F4.1_T4.1 (ssRNA)
RNA: UUUGACAACUGAUCGUUCUUUCUUGUAUAUCUCUUAUUCUUUCUCGAUCAGUUGUCUUU
B28: Ie_S4_P4E.1_K4.1_C4.1_H4.1_A4.1_F4.1_[+9CTCT]_T4.1 (ssRNA)
RNA: UUUGACAACUGAUCGUUCUUUCUUGUAUAUUACUCUUUCUUUCUCGAUCAGUUGUCUUU
B29: Ie_S4_P4E.1_K4.1_C4.1_H4.1_A4.1_[+5TTCC]_F4.1_T4.1 (ssRNA)
RNA: UUUGACAACUGAUCGUUCUUUCUUGUAUUUCCAUUAUUCUUUCUCGAUCAGUUGUCUUU
B30: Ie_S4_P5E.1_K5.1_C5.1_H5.1_[+1CTC]_A5.1_F5.1_T5.1 (ssRNA)
RNA: UUUGACAACUGAUCGUUCUUUCUUCUCGUAUUAUUAUUCUUUCUCGAUCAGUUGUCUUU
B31: Ie_S4_P4E.1_K4.1_C4.1_H4.1_A4.1_[+5TCC]_F4.1_T4.1 (ssRNA)
RNA: UUUGACAACUGAUCGUUCUUUCUUGUAUUCCAUUAUUCUUUCUCGAUCAGUUGUCUUU
B32: Ie_S4_P4E.1_K4.1_C4.1_H4.1_A4.1_F4.1_[+9CTT]_T4.1 (ssRNA)
RNA: UUUGACAACUGAUCGUUCUUUCUUGUAUAUUACUUUUCUUUCUCGAUCAGUUGUCUUU
B33: Ie_S4_P5E.1_K5.1_C5.1_H5.1_[+1TT]_A5.1_F5.1_T5.1 (ssRNA)
RNA: UUUGACAACUGAUCGUUCUUUCUUUUGUAUUAUUAUUCUUUCUCGAUCAGUUGUCUUU
B34: Ie_S4_P4E.1_K4.1_C4.1_H4.1_A4.1_[+5TTC]_F4.1_T4.1 (ssRNA)
RNA: UUUGACAACUGAUCGUUCUUUCUUGUAUUUCAUUAUUCUUUCUCGAUCAGUUGUCUUU
B35: Ie_S4_P4E.1_K4.1_C4.1_H4.1_A4.1_F4.1_[+8TCC]_T4.1 (ssRNA)
RNA: UUUGACAACUGAUCGUUCUUUCUUGUAUAUUUCCAUUCUUUCUCGAUCAGUUGUCUUU
B36: Ie_S4_P4E.1_K4.1_C4.1_H4.1_A4.1_[+6TCT]_F4.1_T4.1 (ssRNA)
RNA: UUUGACAACUGAUCGUUCUUUCUUGUAUAUCUUUAUUCUUUCUCGAUCAGUUGUCUUU
B37: Ie_S4_P4E.1_K4.1_C4.1_H4.1_A4.1_F4.1_[+9CTC]_T4.1 (ssRNA)
RNA: UUUGACAACUGAUCGUUCUUUCUUGUAUAUUACUCUUCUUUCUCGAUCAGUUGUCUUU
B38: Ie_S4_P4E.1_K4.1_C4.1_H4.1_A4.1_[+6CTC]_F4.1_T4.1 (ssRNA)
RNA: UUUGACAACUGAUCGUUCUUUCUUGUAUACUCUUAUUCUUUCUCGAUCAGUUGUCUUU
B39: Ie_S4_P4E.1_K4.1_C4.1_H4.1_A4.1_[+6CCT]_F4.1_T4.1 (ssRNA)
RNA: UUUGACAACUGAUCGUUCUUUCUUGUAUACCUUUAUUCUUUCUCGAUCAGUUGUCUUU
B40: Ie_S4_P4E.1_K4.1_C4.1_H4.1_A4.1_F4.1_[+9TTC]_T4.1 (ssRNA)
RNA: UUUGACAACUGAUCGUUCUUUCUUGUAUAUUAUUCUUCUUUCUCGAUCAGUUGUCUUU
B41: Ie_S4_P4E.1_K4.1_C4.1_H4.1_A4.1_[+7TTC]_F4.1_T4.1 (ssRNA)
RNA: UUUGACAACUGAUCGUUCUUUCUUGUAUAUUUCUAUUCUUUCUCGAUCAGUUGUCUUU
B42: Ie_S4_P4E.1_K4.1_C4.1_H4.1_A4.1_[+7CTC]_F4.1_T4.1 (ssRNA)
RNA: UUUGACAACUGAUCGUUCUUUCUUGUAUAUCUCUAUUCUUUCUCGAUCAGUUGUCUUU
B43: Ie_S4_P4E.1_K4.1_C4.1_H4.1_A4.1_[+6TTT]_F4.1_T4.1 (ssRNA)
RNA: UUUGACAACUGAUCGUUCUUUCUUGUAUAUUUUUAUUCUUUCUCGAUCAGUUGUCUUU
B44: Ie_S4_P5E.1_K5.1_C5.1_H5.1_[+1TC]_A5.1_F5.1_T5.1 (ssRNA)
RNA: UUUGACAACUGAUCGUUCUUUCUUUCGUAUUAUUAUUCUUUCUCGAUCAGUUGUCUUU
B45: Ie_S4_P4E.1_K4.1_C4.1_H4.1_A4.1_[+7C]_F4.1_T4.1 (ssRNA)
RNA: UUUGACAACUGAUCGUUCUUUCUUGUAUAUCUAUUCUUUCUCGAUCAGUUGUCUUU
B46: Ie_S4_P4E.1_K4.1_C4.1_H4.1_A4.1_F4.1_[+9C]_T4.1 (ssRNA)
RNA: UUUGACAACUGAUCGUUCUUUCUUGUAUAUUACUUCUUUCUCGAUCAGUUGUCUUU
B47: Ie_S4_P4E.1_K4.1_C4.1_H4.1_A4.1_F4.1_[+8C]_T4.1 (ssRNA)
RNA: UUUGACAACUGAUCGUUCUUUCUUGUAUAUUCAUUCUUUCUCGAUCAGUUGUCUUU

Biological target: T1, PUF4 RNA-binding domain
Assay: Mg; RNA-MaP; 20 mM Na-HEPES pH 7.4, 30 mM KOAc, 0.75 mM MgCl2, 0.1% Tween-20, 5% glycerol, 0.1 mg/mL BSA, 2 mM DTT; 25 C; 0.0125-409.6 nM protein
Details: tags: N-His6-TEV cleaved; C-SNAP kept, Cy3B-labelled; label: tethered on chip by stalled RNA polymerase

Binder | Kd [nM]
B1 | 42.8
B2 | 6.66
B3 | 10
B4 | 9.69
B5 | 0.565
B6 | 0.343
B7 | 9.15
B8 | 13.5
B9 | 3.92
B10 | 0.607
B11 | 0.647
B12 | 4.82
B13 | 76.2
B14 | 26.3
B15 | 24.6
B16 | 1360
B17 | 581
B18 | 35.8
B19 | 5.61
B20 | 0.36
B21 | 7.89
B22 | 6.61
B23 | 1.07
B24 | 43.3

Binder | Kd [nM]
B25 | 12
B26 | 22.2
B27 | 15.4
B28 | 0.777
B29 | 54
B30 | 216
B31 | 34.1
B32 | 1.08
B33 | 1.52
B34 | 31.3
B35 | 4.35
B36 | 8.73
B37 | 1.39
B38 | 10.3
B39 | 11.2
B40 | 0.42
B41 | 4.42
B42 | 10.3
B43 | 4.94
B44 | 288
B45 | 1.92
B46 | 1.51
B47 | 13.1
